Residue numbers refer to the chain shown, from its start.
Tests used:
[1] = molecular target: T1, α-CCR2 heavy-LgBiT (SEQ ID NO: 158); assay: NanoBiT, HC-LgBiT:LC-SmBiT:competing LC 1:1:1; competing kappa LC m24 (SEQ ID NO: 115)
T1 construct: VH-CH1-linker-LgBiT; germline VH3-7*01

[2] = molecular target: T1, α-CCR2 heavy-LgBiT (SEQ ID NO: 158); assay: NanoBiT, HC-LgBiT:LC-SmBiT:competing LC 1:1:1; competing kappa LC m9 (SEQ ID NO: 100)
[3] = molecular target: T1, α-CCR2 heavy-LgBiT (SEQ ID NO: 158); assay: NanoBiT, HC-LgBiT:LC-SmBiT:competing LC 1:1:1; competing kappa LC m12 (SEQ ID NO: 103)
[4] = molecular target: T1, α-CCR2 heavy-LgBiT (SEQ ID NO: 158); assay: NanoBiT, HC-LgBiT:LC-SmBiT:competing LC 1:1:1; competing kappa LC m6 (SEQ ID NO: 97)
[5] = molecular target: T1, α-CCR2 heavy-LgBiT (SEQ ID NO: 158); assay: NanoBiT, HC-LgBiT:LC-SmBiT:competing LC 1:1:1; competing kappa LC m18 (SEQ ID NO: 109)
[6] = molecular target: T1, α-CCR2 heavy-LgBiT (SEQ ID NO: 158); assay: NanoBiT, HC-LgBiT:LC-SmBiT:competing LC 1:1:1; competing kappa LC m42 (SEQ ID NO: 133)
[7] = molecular target: T1, α-CCR2 heavy-LgBiT (SEQ ID NO: 158); assay: NanoBiT, HC-LgBiT:LC-SmBiT:competing LC 1:1:1; competing kappa LC m15 (SEQ ID NO: 106)
[8] = molecular target: T2, α-CCR2 heavy-LgBiT (SEQ ID NO: 155); assay: NanoBiT, HC-LgBiT:LC-SmBiT:competing LC 1:1:1; competing kappa LC m24 (SEQ ID NO: 115)
T2 construct: VH-CH1-linker-LgBiT; germline VH1-2*01

[9] = molecular target: T2, α-CCR2 heavy-LgBiT (SEQ ID NO: 155); assay: NanoBiT, HC-LgBiT:LC-SmBiT:competing LC 1:1:1; competing kappa LC m36 (SEQ ID NO: 127)
[10] = molecular target: T2, α-CCR2 heavy-LgBiT (SEQ ID NO: 155); assay: NanoBiT, HC-LgBiT:LC-SmBiT:competing LC 1:1:1; competing kappa LC m33 (SEQ ID NO: 124)
[11] = molecular target: T2, α-CCR2 heavy-LgBiT (SEQ ID NO: 155); assay: NanoBiT, HC-LgBiT:LC-SmBiT:competing LC 1:1:1; competing kappa LC m42 (SEQ ID NO: 133)
[12] = molecular target: T3, α-neuropilin 1 heavy-LgBiT (SEQ ID NO: 131); assay: NanoBiT, HC-LgBiT:LC-SmBiT:competing LC 1:1:1; competing lambda LC m45 (SEQ ID NO: 136)
T3 construct: VH-CH1-linker-LgBiT; germline VH3-66*01

[13] = molecular target: T3, α-neuropilin 1 heavy-LgBiT (SEQ ID NO: …); assay: NanoBiT, HC-LgBiT:LC-SmBiT:competing LC 1:1:1; competing lambda LC m72 (SEQ ID NO: 163)
[14] = molecular target: T3, α-neuropilin 1 heavy-LgBiT (SEQ ID NO: …); assay: NanoBiT, HC-LgBiT:LC-SmBiT:competing LC 1:1:1; competing lambda LC m69 (SEQ ID NO: 160)
[15] = molecular target: T3, α-neuropilin 1 heavy-LgBiT (SEQ ID NO: …); assay: NanoBiT, HC-LgBiT:LC-SmBiT:competing LC 1:1:1; competing lambda LC m48 (SEQ ID NO: 139)
[16] = molecular target: T3, α-neuropilin 1 heavy-LgBiT (SEQ ID NO: …); assay: NanoBiT, HC-LgBiT:LC-SmBiT:competing LC 1:1:1; competing lambda LC m63 (SEQ ID NO: 154)
[17] = molecular target: T3, α-neuropilin 1 heavy-LgBiT (SEQ ID NO: …); assay: NanoBiT, HC-LgBiT:LC-SmBiT:competing LC 1:1:1; competing lambda LC m66 (SEQ ID NO: 157)
[18] = molecular target: T3, α-neuropilin 1 heavy-LgBiT (SEQ ID NO: …); assay: NanoBiT, HC-LgBiT:LC-SmBiT:competing LC 1:1:1; competing lambda LC m54 (SEQ ID NO: 145)
[19] = molecular target: T3, α-neuropilin 1 heavy-LgBiT (SEQ ID NO: …); assay: NanoBiT, HC-LgBiT:LC-SmBiT:competing LC 1:1:1; competing lambda LC m51 (SEQ ID NO: 142)
[20] = molecular target: T4, α-complement C5 heavy-LgBiT (SEQ ID NO: 152); assay: NanoBiT, HC-LgBiT:LC-SmBiT:competing LC 1:1:1; competing kappa LC m42 (SEQ ID NO: 133)
T4 construct: VH-CH1-linker-LgBiT; germline VH1-69*01

[21] = molecular target: T5, α-IL23 heavy-LgBiT (SEQ ID NO: 140); assay: NanoBiT, HC-LgBiT:LC-SmBiT:competing LC 1:1:1; competing kappa LC m24 (SEQ ID NO: 115)
T5 construct: VH-CH1-linker-LgBiT; germline VH5-51*01

[22] = molecular target: T5, α-IL23 heavy-LgBiT (SEQ ID NO: 140); assay: NanoBiT, HC-LgBiT:LC-SmBiT:competing LC 1:1:1; competing kappa LC m33 (SEQ ID NO: 124)
[23] = molecular target: T5, α-IL23 heavy-LgBiT (SEQ ID NO: 140); assay: NanoBiT, HC-LgBiT:LC-SmBiT:competing LC 1:1:1; competing kappa LC m6 (SEQ ID NO: 97)
[24] = molecular target: T5, α-IL23 heavy-LgBiT (SEQ ID NO: 140); assay: NanoBiT, HC-LgBiT:LC-SmBiT:competing LC 1:1:1; competing kappa LC m27 (SEQ ID NO: 118)
[25] = molecular target: T6, α-CD221 heavy-LgBiT (SEQ ID NO: 134); assay: NanoBiT, HC-LgBiT:LC-SmBiT:competing LC 1:1:1; competing kappa LC m33 (SEQ ID NO: 124)
T6 construct: VH-CH1-linker-LgBiT; germline VH1-69*01

[26] = molecular target: T6, α-CD221 heavy-LgBiT (SEQ ID NO: 134); assay: NanoBiT, HC-LgBiT:LC-SmBiT:competing LC 1:1:1; competing kappa LC m21 (SEQ ID NO: 112)
[27] = molecular target: T6, α-CD221 heavy-LgBiT (SEQ ID NO: 134); assay: NanoBiT, HC-LgBiT:LC-SmBiT:competing LC 1:1:1; competing kappa LC m42 (SEQ ID NO: 133)
[28] = molecular target: T6, α-CD221 heavy-LgBiT (SEQ ID NO: 134); assay: NanoBiT, HC-LgBiT:LC-SmBiT:competing LC 1:1:1; competing kappa LC m15 (SEQ ID NO: 106)
[29] = molecular target: T7, α-death receptor 5 heavy-LgBiT (SEQ ID NO: 137); assay: NanoBiT, HC-LgBiT:LC-SmBiT:competing LC 1:1:1; competing kappa LC m36 (SEQ ID NO: 127)
T7 construct: VH-CH1-linker-LgBiT; germline VH3-20*01

[30] = molecular target: T7, α-death receptor 5 heavy-LgBiT (SEQ ID …); assay: NanoBiT, HC-LgBiT:LC-SmBiT:competing LC 1:1:1; competing kappa LC m12 (SEQ ID NO: 103)
[31] = molecular target: T7, α-death receptor 5 heavy-LgBiT (SEQ ID …); assay: NanoBiT, HC-LgBiT:LC-SmBiT:competing LC 1:1:1; competing kappa LC m33 (SEQ ID NO: 124)
[32] = molecular target: T7, α-death receptor 5 heavy-LgBiT (SEQ ID …); assay: NanoBiT, HC-LgBiT:LC-SmBiT:competing LC 1:1:1; competing kappa LC m18 (SEQ ID NO: 109)

B1: α-CCR2 light-SmBiT (SEQ ID NO: 159) (other)
light: QAGLTQPPSVSKGLRQTATLTCTGNSNNVGNQGAAWLQQHQGHPPKLLFYRNNNRASGISERLSASRSGNTASLTITGLQPEDEADYYCLTWDSSLSVVVFGGGTKLTVLGQPKANPTVTLFPPSSEELQANKATLVCLISDFYPGAVTVAWKADGSPVKAGVETTKPSKQSNNKYAASSYLSLTPEQWKSHRSYSCQVTHEGSTVEKTVAPTECSGSSGGGGSGGGGSSGGVTGYRLFEEIL
notes: lambda light chain-linker-SmBiT; germline Vl10-54*01
What does the source list for B1?
Percent pairing [1]: 97%; Percent pairing [2]: 99%; Percent pairing [3]: 100%; Percent pairing [4]: 89%; Percent pairing [5]: 95%; Percent pairing [6]: 99%; Percent pairing [7]: 98%

B2: α-CCR2 light-SmBiT (SEQ ID NO: 156) (other)
light: LPVLTQPPSVSKGLRQTATLTCTGNSNNVGNQGAAWLQQHQGQPPKLLSYRNHNRPSGVSERFSPSRSGDTSSLTITGLQPEDEADYYCLAWDSSLRAFVFGTGTKLTVLGQPKANPTVTLFPPSSEELQANKATLVCLISDFYPGAVTVAWKADGSPVKAGVETTKPSKQSNNKYAASSYLSLTPEQWKSHRSYSCQVTHEGSTVEKTVAPTECSGSSGGGGSGGGGSSGGVTGYRLFEEIL
notes: as for B1
Which results are given for B2?
Percent pairing [8]: 90%; Percent pairing [9]: 77%; Percent pairing [10]: 80%; Percent pairing [11]: 100%

B3: α-neuropilin 1 light-SmBiT (SEQ ID NO: 132) (other)
light: DIQMTQSPSSLSASVGDRVTITCRASQYFSSYLAWYQQKPGKAPKLLIYGASSRASGVPSRFSGSGSGTDFTLTISSLQPEDFATYYCQQYLGSPPTFGQGTKVEIKRTVAAPSVFIFPPSDEQLKSGTASVVCLLNNFYPREAKVQWKVDNALQSGNSQESVTEQDSKDSTYSLSSTLTLSKADYEKHKVYACEVTHQGLSSPVTKSFNRGECGSSGGGGSGGGGSSGGVTGYRLFEEIL
notes: kappa light chain-linker-SmBiT; germline Vk1-39*01
Which Percent pairing [12] does the source give for B3 here?
Its Percent pairing is 100%.

What about the Percent pairing [13] of the same binder?
The Percent pairing was 100%.

What about the Percent pairing [14] of the same binder?
The Percent pairing was 100%.

What about the Percent pairing [15] of the same binder?
Its Percent pairing is 100%.

What about the Percent pairing [16] of the same binder?
The Percent pairing was 100%.

What about the Percent pairing [17] of the same binder?
Its Percent pairing is 100%.

And the Percent pairing [18]?
Its Percent pairing is 100%.

And the Percent pairing [19]?
Its Percent pairing is 84%.

B4: α-complement C5 light-SmBiT (SEQ ID NO: 153) (other)
light: SYELTQPLSVSVALGQTARITCSGDSIPNYYVYWYQQKPGQAPVLVIYDDSNRPSGIPERFSGSNSGNTATLTISRAQAGDEADYYCQSFDSSLNAEVFGGGTKLTVLGQPKANPTVTLFPPSSEELQANKATLVCLISDFYPGAVTVAWKADGSPVKAGVETTKPSKQSNNKYAASSYLSLTPEQWKSHRSYSCQVTHEGSTVEKTVAPTECSGSSGGGGSGGGGSSGGVTGYRLFEEIL
notes: lambda light chain-linker-SmBiT; germline Vl3-9*01
B4 was tested. Which Percent pairing [20] did it give?
The Percent pairing was 79%.

B5: α-IL23 light-SmBiT (SEQ ID NO: 141) (other)
light: QSVLTQPPSVSGAPGQRVTISCTGSSSNIGSGYDVHWYQQLPGTAPKLLIYGNSKRPSGVPDRFSGSKSGTSASLAITGLQSEDEADYYCASWTDGLSLVVFGGGTKLTVLGQPKANPTVTLFPPSSEELQANKATLVCLISDFYPGAVTVAWKADGSPVKAGVETTKPSKQSNNKYAASSYLSLTPEQWKSHRSYSCQVTHEGSTVEKTVAPTECSGSSGGGGSGGGGSSGGVTGYRLFEEIL
notes: lambda light chain-linker-SmBiT; germline Vl1-40*01
Which Percent pairing [21] does the source give for B5 here?
The Percent pairing was 93%.

What about the Percent pairing [22] of the same binder?
The Percent pairing was 100%.

What about the Percent pairing [23] of the same binder?
The Percent pairing was 96%.

What about the Percent pairing [24] of the same binder?
Its Percent pairing is 91%.

B6: α-CD221 light-SmBiT (SEQ ID NO: 135) (other)
light: SSELTQDPAVSVALGQTVRITCQGDSLRSYYATWYQQKPGQAPILVIYGENKRPSGIPDRFSGSSSGNTASLTITGAQAEDEADYYCKSRDGSGQHLVFGGGTKLTVLGQPKANPTVTLFPPSSEELQANKATLVCLISDFYPGAVTVAWKADGSPVKAGVETTKPSKQSNNKYAASSYLSLTPEQWKSHRSYSCQVTHEGSTVEKTVAPTECSGSSGGGGSGGGGSSGGVTGYRLFEEIL
notes: lambda light chain-linker-SmBiT; germline Vl3-19*01
Which Percent pairing [25] does the source give for B6 here?
Its Percent pairing is 100%.

What about the Percent pairing [26] of the same binder?
The Percent pairing was 95%.

And the Percent pairing [27]?
Its Percent pairing is 100%.

And the Percent pairing [28]?
The Percent pairing was 96%.

B7: α-death receptor 5 light-SmBiT (SEQ ID NO: 138) (other)
light: B6 light with Q23S, T33S, I44V, E50A, K52N, K88N, R90A, G92S, Q95N, L97V
notes: as for B6
What does the source list for B7?
Percent pairing [29]: 95%; Percent pairing [30]: 100%; Percent pairing [31]: 100%; Percent pairing [32]: 100%
